Measurements as given in patent US20240093191A1, “COMPOSITIONS AND METHODS FOR TREATING DISEASE ASSOCIATED WITH DUX4 OVEREXPRESSION” (RESEARCH INSTITUTE AT NATIONWIDE CHILDREN'S HOSPITAL, priority 2021, published 2024).

B1: U6.mi405H: mi405 construct with altered flanking sequences (nucleic acid)
DNA: ACGCCGCCATCTCTAGGCCCGCGCCGGCCCCCTCGCACAGACTTGTGGGAGAAGCTCGGCTACTCCCCTGCCCCGGTTAATTTGCATATAATATTTCCTAGTAACTATAGAGGCTTAATGTGCGATAAAAGACAGATAATCTGTTCTTTTTAATACTAGCTACATTTTACATGATAGGCTTGGATTTCTATAAGAGATACAAATACTAAATTATTATTTTAAAAAACAGCACAAAAGGAAACTCACCCTAACTGTAAAGTAATTGTGTGTTTTGAGACTATAAATATCCCTTGGAGAAAAGCCTTGTTTGACCGTTTAAACTCGAGTGAGCGATCCAGGATTCAGATCTGGTTTCTGTAAAGCCACAGATGGGAAACCAGATCTGAATCCTGGACTGCCTACTAGAGCGCACGCCAGTTTTTT
B2: U6.mi405F: mi405 with one G at 5' end and 16 mer 3' flanking sequence with single CNNC motif (nucleic acid)
DNA: ACGCCGCCATCTCTAGGCCCGCGCCGGCCCCCTCGCACAGACTTGTGGGAGAAGCTCGGCTACTCCCCTGCCCCGGTTAATTTGCATATAATATTTCCTAGTAACTATAGAGGCTTAATGTGCGATAAAAGACAGATAATCTGTTCTTTTTAATACTAGCTACATTTTACATGATAGGCTTGGATTTCTATAAGAGATACAAATACTAAATTATTATTTTAAAAAACAGCACAAAAGGAAACTCACCCTAACTGTAAAGTAATTGTGTGTTTTGAGACTATAAATATCCCTTGGAGAAAAGCCTTGTTTGCTCGAGTGAGCGATCCAGGATTCAGATCTGGTTTCTGTAAAGCCACAGATGGGAAACCAGATCTGAATCCTGGACTGCCTACTAGTAATTCTTCGATTCTGCTTTTTT
B3: U6.mi405G: mi405 construct with altered flanking sequences (nucleic acid)
DNA: ACGCCGCCATCTCTAGGCCCGCGCCGGCCCCCTCGCACAGACTTGTGGGAGAAGCTCGGCTACTCCCCTGCCCCGGTTAATTTGCATATAATATTTCCTAGTAACTATAGAGGCTTAATGTGCGATAAAAGACAGATAATCTGTTCTTTTTAATACTAGCTACATTTTACATGATAGGCTTGGATTTCTATAAGAGATACAAATACTAAATTATTATTTTAAAAAACAGCACAAAAGGAAACTCACCCTAACTGTAAAGTAATTGTGTGTTTTGAGACTATAAATATCCCTTGGAGAAAAGCCTTGTTTGACCGTTTAAACTCGAGTGAGCGATCCAGGATTCAGATCTGGTTTCTGTAAAGCCACAGATGGGAAACCAGATCTGAATCCTGGACTGCCTACTAGAGAATTCTTCGATTCTGCTTTTTT

Tests used:
[1] = test system: DUX4 ORF (RenLuc-DUX4 ORF); assay: Dual-luciferase assay, RenLuc-DUX4 ORF reporter co-transfected with miDUX4 plasmids in HEK293 cells; type: cell-based, human; conditions: for reduction of Renilla luciferase activity: normalized to U6.miGFP
Procedure, shortened: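 HEK293 cells were co-transfected by lipofection with a psiCheck2 reporter carrying the DUX4 ORF as the Renilla luciferase 3′UTR and U6-driven miDUX4 plasmids, at increasing reporter:miRNA molar ratios. Renilla/Firefly ratio was read 24 h or 48 h post-transfection, with Firefly as transfection normaliser. Values are means ± SEM of triplicates over 3 experiments.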

mi405 mature sequence = assay: QPCR of mature mi405 (standard TaqMan cDNA synthesis) in HEK293 cells; type: cell-based, human; conditions: 24 h after transfection
Experimental: TaqMan Gene Expression Assay. QRT-PCR was carried out to quantify the expression of pri-mir-675, mir-675-5p and mi405 using TaqMan probes (ThermoFisher Scientific). Experiments were started by eliminating genomic DNA from the RNA preparations, and then cDNA was generated using the High-Capacity cDNA Reverse Transcription Kit (Applied Biosystems) following manufacturer's instructions. Within the same cDNA reaction, 1×RT random hexamer primers were used to generate the cDNA for RPL13A, used as a reference gene, and for pri-mir-675. To generate the cDNA for mir-675, the RT mir-675 reverse primer provided by ThermoFisher Scientific was used. For mi405, the mi405 qPCR protocol was done as it was previously described [Wallace et al., Mol. Ther. Methods Clin. Dev. 8: 121-30 (2018)]. To quantify mir-675 and mi405 levels, RNA was extracted using the total RNA protocol for the mirVana miRNA Isolation Kit (Ambion) from HEK293 cells. cDNA was generated using the High-Capacity cDNA Reverse Transcription Kit (Applied Biosystems) using a mix of random hexamer primers and specific reverse primer for pri-mir-675 and mir-675-5p. For mi405, 200 nM of the stem-loop forming primer (5′-[…]-3′) (SEQ ID NO: 144) was also used for the RT step. A custom TaqMan assay (Applied Biosystems) including 1.5 μM of Forward primer (5′-[…]-3′) (SEQ ID NO: 145), 0.7 μM of Reverse primer (5′-GTGCAGGGTCCGAGGT-3′) (SEQ ID NO: 146), and 0.2 μM of mi405 probe (5′-6FAM-ATACGACGTCCAGGAT-3′) (SEQ ID NO: 147) was then run using the CFX Connect Real Time system apparatus (Bio-Rad). RPL13A (Mm02526700_g1; Applied Biosystems) served as the reference gene. The TaqMan gene expression assay consisted of using the TaqMan Gene Expression Master mix and TaqMan probes purchased from ThermoFisher Scientific. 1× of probe was mixed with 1× of the TaqMan Gene Expression Master mix (ThermoFisher Scientific), and with 20 ng of cDNA. The mir-675- and mi405-specific primers and probes were designed to quantify only the mir-675-5p and mi405 mature sequence (see TaqMan Gene Expression Master mix protocol).
Apart from the effect on the inhibition efficiency of mi405, the effect of the flanking sequences on the expression of the miRNA also was tested. Therefore, the expression of the processed mature mi405 sequences was quantified using the standard and advanced TaqMan cDNA synthesis reaction. In the former reaction, a reverse primer detects the mature mi405 sequence following a stem-loop primer-based small RNA detection principle (ThermoFisher Scientific) (Jung et al., RNA (2013) 19: 1-10). The amplification and quantification steps were then performed using a standard TaqMan probe specific to mi405 that base pairs at the junction between the mi405 mature sequence and the reverse primer sequence (FIG. 6A). […] In the TaqMan advanced cDNA synthesis reaction, the mature sequence is extended through ligation of an adaptor sequence at the 5′ end and through the enzymatic addition of a polyA tail at the 3′ end of the mature mi405 sequence. The amplification and quantification steps were then performed using a TaqMan advanced probe specific to mi405 that normally base pairs with the 3′ end of the mature miRNA and with part of the adaptor sequence. Here, an additional TaqMan advanced probe (embedded probe) that only base pairs with the mature sequence of mi405 (FIG. 6B) was used. As a result, following TaqMan advanced cDNA synthesis reaction, droplet digital PCR (ddPCR) was performed to quantify mi405, mi405F, mi405B, mi405C, mi405G and mi405H expression levels. For this, TaqMan advanced embedded and overlapped mi405 probes (FIG. 6B) were used.

[2] = DUX4:mi405 molar ratio 2 to 1, HEK293, 24 h
[3] = DUX4:mi405 molar ratio 12 to 1, HEK293, 24 h

| Molecule | reduction of Renilla luciferase activity [1, 2] | additional reduction of Renilla luciferase activity compared to U6.mi405F ([1]; DUX4:mi405 molar ratio 12 to 1) | reduction of Renilla luciferase activity [1, 3] | levels of mature mi405 sequence compared to U6.mi405 (mi405 mature sequence) | reduction of relative Renilla luciferase activity ([1]; 1:4 DUX4:mi405 molar ratio, HEK293, 24 h, normalized to miGFP) | decrease of relative Renilla luciferase activity compared to U6.mi405 ([1]; DUX4:mi405 molar ratio 8:1, 24 h) | decrease of relative Renilla luciferase activity compared to U6.mi405 ([1]; DUX4:miDUX4 molar ratio 1:1) | decrease of relative Renilla luciferase activity compared to U6.mi405 ([1]; DUX4:miDUX4 molar ratio 1:2) | decrease of relative Renilla luciferase activity compared to U6.mi405 ([1]; DUX4:miDUX4 molar ratio 1:3) | decrease of relative Renilla luciferase activity compared to U6.mi405 ([1]; DUX4:miDUX4 molar ratio 1:4) | relative Renilla luciferase activity reached ([1]; DUX4:miDUX4 molar ratio 8:1) | more efficient than U6.mi405 in reducing relative Renilla luciferase activity ([1]; DUX4:miDUX4 molar ratio 40:1) | reduction of mature mi405 sequence expression relative to U6.mi405 (mi405 mature sequence; normalized to RPL13A) |
| --- | --- | --- | --- | --- | --- | --- | --- | --- | --- | --- | --- | --- | --- |
| B1 | 80±1% | 25±6% | 58±2% | greater or higher with the difference not being statistically significant |  |  |  |  |  |  |  |  |  |
| B2 | 77±1% |  | 45±4% |  | 89±1% | 48±6% | 33±2% | 32±2% | 34±1% | 32±1% | 38±2% | 13±2% | 85±5% |
| B3 | 81±1% | 26±5% | 59±2% | greater or higher with the difference not being statistically significant |  |  |  |  |  |  |  |  |  |
